B1: ALIX (cellular) (other, UniProt Q8WUM4 2-868, looked up)
chain: ATFISVQLKKTSEVDLAKPLVKFIQQTYPSGGEEQAQYCRAAEELSKLRRAAVGRPLDKHEGALETLLRYYDQICSIEPKFPFSENQICLTFTWKDAFDKGSLFGGSVKLALASLGYEKSCVLFNCAALASQIAAEQNLDNDEGLKIAAKHYQFASGAFLHIKETVLSALSREPTVDISPDTVGTLSLIMLAQAQEVFFLKATRDKMKDAIIAKLANQAADYFGDAFKQCQYKDTLPKEVFPVLAAKHCIMQANAEYHQSILAKQQKKFGEEIARLQHAAELIKTVASRYDEYVNVKDFSDKINRALAAAKKDNDFIYHDRVPDLKDLDPIGKATLVKSTPVNVPISQKFTDLFEKMVPVSVQQSLAAYNQRKADLVNRSIAQMREATTLANGVLASLNLPAAIEDVSGDTVPQSILTKSRSVIEQGGIQTVDQLIKELPELLQRNREILDESLRLLDEEEATDNDLRAKFKERWQRTPSNELYKPLRAEGTNFRTVLDKAVQADGQVKECYQSHRDTIVLLCKPEPELNAAIPSANPAKTMQGSEVVNVLKSLLSNLDEVKKEREGLENDLKSVNFDMTSKFLTALAQDGVINEEALSVTELDRVYGGLTTKVQESLKKQEGLLKNIQVSHQEFSKMKQSNNEANLREEVLKNLATAYDNFVELVANLKEGTKFYNELTEILVRFQNKCSDIVFARKTERDELLKDLQQSIAREPSAPSIPTPAYQSSPAGGHAPTPPTPAPRTMPPTKPQPPARPPPPVLPANRAPSATAPSPVGAGTAAPAPSQTPGSAPPPQAQGPPYPTYPGYPGYCQMPMPMGYNPYAYGQYNMPYPPVYHQSPGQAPYPGPQQPSYPFPQPPQQSYYPQQ
notes: also called PDCD6IP
B2: endogenous PKR (enzyme, UniProt P19525 2-551, looked up)
chain: AGDLSAGFFMEELNTYRQKQGVVLKYQELPNSGPPHDRRFTFQVIIDGREFPEGEGRSKKEAKNAAAKLAVEILNKEKKAVSPLLLTTTNSSEGLSMGNYIGLINRIAQKKRLTVNYEQCASGVHGPEGFHYKCKMGQKEYSIGTGSTKQEAKQLAAKLAYLQILSEETSVKSDYLSSGSFATTCESQSNSLVTSTLASESSSEGDFSADTSEINSNSDSLNSSSLLMNGLRNNQRKAKRSLAPRFDLPDMKETKYTVDKRFGMDFKEIELIGSGGFGQVFKAKHRIDGKTYVIKRVKYNNEKAEREVKALAKLDHVNIVHYNGCWDGFDYDPETSDDSLESSDYDPENSKNSSRSKTKCLFIQMEFCDKGTLEQWIEKRRGEKLDKVLALELFEQITKGVDYIHSKKLIHRDLKPSNIFLVDTKQVKIGDFGLVTSLKNDGKRTRSKGTLRYMSPEQISSQDYGKEVDLYALGLILAELLHVCDTAFETSKFFTDLRDGIISDIFDKKEKTLLQKLLSKKPEDRPNTSEILRTLTVWKKSPEKNERHTC
notes: also called EIF2AK2; Protein Kinase R
B3: endogenous PACT (other, UniProt O75569 1-313, looked up)
chain: MSQSRHRAEAPPLEREDSGTFSLGKMITAKPGKTPIQVLHEYGMKTKNIPVYECERSDVQIHVPTFTFRVTVGDITCTGEGTSKKLAKHRAAEAAINILKANASICFAVPDPLMPDPSKQPKNQLNPIGSLQELAIHHGWRLPEYTLSQEGGPAHKREYTTICRLESFMETGKGASKKQAKRNAAEKFLAKFSNISPENHISLTNVVGHSLGCTWHSLRNSPGEKINLLKRSLLSIPNTDYIQLLSEIAKEQGFNITYLDIDELSANGQYQCLAELSTSPITVCHGSGISCGNAQSDAAHNALQYLKIIAERK
notes: also called PRKRA
B4: GFP-PACT (other, UniProt O75569 1-313, looked up)
chain: B3 chain
notes: not shown: GFP
B5: Myc-PKR (enzyme, UniProt P19525 1-551, looked up)
chain: MAGDLSAGFFMEELNTYRQKQGVVLKYQELPNSGPPHDRRFTFQVIIDGREFPEGEGRSKKEAKNAAAKLAVEILNKEKKAVSPLLLTTTNSSEGLSMGNYIGLINRIAQKKRLTVNYEQCASGVHGPEGFHYKCKMGQKEYSIGTGSTKQEAKQLAAKLAYLQILSEETSVKSDYLSSGSFATTCESQSNSLVTSTLASESSSEGDFSADTSEINSNSDSLNSSSLLMNGLRNNQRKAKRSLAPRFDLPDMKETKYTVDKRFGMDFKEIELIGSGGFGQVFKAKHRIDGKTYVIKRVKYNNEKAEREVKALAKLDHVNIVHYNGCWDGFDYDPETSDDSLESSDYDPENSKNSSRSKTKCLFIQMEFCDKGTLEQWIEKRRGEKLDKVLALELFEQITKGVDYIHSKKLIHRDLKPSNIFLVDTKQVKIGDFGLVTSLKNDGKRTRSKGTLRYMSPEQISSQDYGKEVDLYALGLILAELLHVCDTAFETSKFFTDLRDGIISDIFDKKEKTLLQKLLSKKPEDRPNTSEILRTLTVWKKSPEKNERHTC
notes: not shown: Myc tag
B6: GFP-PKR (enzyme, UniProt P19525 1-551, looked up)
chain: B5 chain
notes: not shown: GFP

Legend:
APEX2-eIF2α = molecular target: T1, APEX2-eIF2α (UniProt P05198 1-315); experiment: APEX2-eIF2α proximity biotinylation, LC/MS/MS, LLOMe against control
T1 construct: also called APEX2-eIF2α fusion

FLAG-ALIX (full length) [1] = molecular target: T2, FLAG-ALIX (full length) (UniProt Q8WUM4 1-868); experiment: co-IP with anti-FLAG from HEK293T cells, 1 mM LLOMe 30 min
T2 construct: also called full-length ALIX; not shown: FLAG tag
T2 sequence (looked up): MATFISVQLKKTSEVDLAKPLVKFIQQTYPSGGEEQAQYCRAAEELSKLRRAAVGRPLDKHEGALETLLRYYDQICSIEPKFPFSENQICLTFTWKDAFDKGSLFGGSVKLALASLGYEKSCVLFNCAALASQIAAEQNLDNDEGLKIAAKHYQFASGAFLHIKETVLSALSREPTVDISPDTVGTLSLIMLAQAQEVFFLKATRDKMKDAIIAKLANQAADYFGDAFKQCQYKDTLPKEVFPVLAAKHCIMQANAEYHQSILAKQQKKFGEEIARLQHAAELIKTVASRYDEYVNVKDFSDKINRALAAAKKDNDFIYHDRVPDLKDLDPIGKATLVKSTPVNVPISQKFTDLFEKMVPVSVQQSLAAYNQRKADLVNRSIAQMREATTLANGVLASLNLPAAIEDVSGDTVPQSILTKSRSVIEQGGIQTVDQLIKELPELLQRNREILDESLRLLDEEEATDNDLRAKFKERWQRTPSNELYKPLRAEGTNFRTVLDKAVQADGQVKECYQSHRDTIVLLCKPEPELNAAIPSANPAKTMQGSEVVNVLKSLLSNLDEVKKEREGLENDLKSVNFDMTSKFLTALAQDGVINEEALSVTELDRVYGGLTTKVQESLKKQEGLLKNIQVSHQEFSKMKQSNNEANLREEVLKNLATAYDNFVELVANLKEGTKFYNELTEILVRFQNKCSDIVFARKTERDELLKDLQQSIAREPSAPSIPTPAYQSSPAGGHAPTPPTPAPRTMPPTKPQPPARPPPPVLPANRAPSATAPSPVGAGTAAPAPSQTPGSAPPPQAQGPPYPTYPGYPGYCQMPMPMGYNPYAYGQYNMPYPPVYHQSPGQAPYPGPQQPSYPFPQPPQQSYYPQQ

FLAG-PKR = molecular target: T3, FLAG-PKR (UniProt P19525 1-551); experiment: co-IP of FLAG-PKR and PACT in HEK293T cells
T3 construct: not shown: FLAG tag

FLAG-eIF2α = molecular target: T4, FLAG-eIF2α (UniProt P05198 1-315); experiment: co-IP with anti-FLAG from HEK293T cells, 1 mM LLOMe 30 min
T4 construct: not shown: FLAG tag

endogenous PKR = molecular target: B2; experiment: co-IP with anti-GFP from HEK293T cells transfected with FLAG or FLAG-ALIX, 1 mM LLOMe 30 min
ALIX (cellular) = molecular target: B1; experiment: confocal microscopy of GFP-PKR/PACT and ALIX in U2OS cells, 2 mM LLOMe
FLAG-ALIX (full length) [2] = molecular target: T2, FLAG-ALIX (full length); experiment: co-IP with anti-FLAG from HEK293T cells expressing FLAG tagged ALIX constructs and Myc-PKR

T4 sequence (P05198 whole entry): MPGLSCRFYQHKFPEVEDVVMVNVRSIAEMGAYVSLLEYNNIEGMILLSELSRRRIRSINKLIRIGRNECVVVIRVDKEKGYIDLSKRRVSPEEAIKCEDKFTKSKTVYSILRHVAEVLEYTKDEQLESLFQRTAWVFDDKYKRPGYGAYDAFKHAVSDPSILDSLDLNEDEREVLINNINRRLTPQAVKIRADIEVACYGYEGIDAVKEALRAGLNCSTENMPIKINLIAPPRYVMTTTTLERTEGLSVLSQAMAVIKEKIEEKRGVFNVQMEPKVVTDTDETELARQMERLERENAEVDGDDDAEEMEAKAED
T1 sequence (P05198 whole entry, the tested form may be a part): as the sequence (P05198 whole entry) above

B1
fold increase in association with eIF2α (LLOMe/CTR) (APEX2-eIF2α): > 10 fold

B2
binding result (FLAG-ALIX (full length) [1]): binds

B3
binding result (FLAG-PKR): binds | binding result (FLAG-eIF2α): binds | binding result (FLAG-ALIX (full length) [1]): binds

B4
binding result (endogenous PKR): binds | binding result (ALIX (cellular)): binds

B5
binding result (FLAG-ALIX (full length) [2]): binds

B6
binding result (ALIX (cellular)): binds

Source: patent publication US20240409935A1 (UNM RAINFOREST INNOVATIONS, published 2024)
